Patent publication US20170306001A1

Tests used:
[1] = target: DL06-HA, full length HA of A/duck/Laos/3295/2006(H5N1) (clade 2.3.4) (influenza A virus A/duck/Laos/3295/2006(H5N1)); assay: cell-based or functional assay
[2] = target: native H5 HA from multiple H5N1 clades; assay: cell-based or functional assay

B1: Mouse MAb 9F4 (antibody, V domains shown)
V domain 1: QQSEAELARPGASVKMSCKASGFTLTTFTIHWVKQRPGQGLEWIGYINPRSGYTDYNQKFKDNTTLTVDKSSSTAYMQLSSLTSEDSAVFYCARSYYDYDVFDYWGQGTTLTV
V domain 2: DVQMTQSPSSLSASLGGKVTITCTARQDINKYIAWYQHKPGKGPRLLIHYTSTLQPGIPSRFSGSGSGTDYSFTISNLEPEDIATYYCLQYDNLVTFGGGTK
B1 showed an IC50, entry of HA-pseudotyped lentiviral particles into MDCK cells (luciferase) [1] of 0.01 mg/L and an IC95, HApp neutralization [2] of 0.1 mg/L.
